The target in one data set is T1, PLD3 (active) (Homo sapiens, UniProt Q8IV08 60-490).
T1 sequence: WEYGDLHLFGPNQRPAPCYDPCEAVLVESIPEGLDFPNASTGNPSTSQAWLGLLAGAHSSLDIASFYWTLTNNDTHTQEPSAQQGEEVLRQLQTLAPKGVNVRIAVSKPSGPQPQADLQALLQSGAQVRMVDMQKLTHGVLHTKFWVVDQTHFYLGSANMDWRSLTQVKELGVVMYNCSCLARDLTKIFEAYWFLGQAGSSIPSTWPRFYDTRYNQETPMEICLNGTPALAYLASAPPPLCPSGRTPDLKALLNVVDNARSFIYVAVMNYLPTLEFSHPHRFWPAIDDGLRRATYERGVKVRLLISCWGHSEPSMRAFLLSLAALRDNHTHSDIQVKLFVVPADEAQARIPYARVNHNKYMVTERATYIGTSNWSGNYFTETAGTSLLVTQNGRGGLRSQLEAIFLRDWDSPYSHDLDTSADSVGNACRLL
As to the kind of experiment: cryo-EM.

The data set “SEC” concerns the molecule itself. As to the kind of experiment: SEC. For orientation: SEC sorts molecules by how far they enter the pores of the column.
A further data set has as its target T2, PLD3(H201N,H416N) (Homo sapiens, UniProt Q8IV08 60-490, H201N;H416N).
T2 sequence: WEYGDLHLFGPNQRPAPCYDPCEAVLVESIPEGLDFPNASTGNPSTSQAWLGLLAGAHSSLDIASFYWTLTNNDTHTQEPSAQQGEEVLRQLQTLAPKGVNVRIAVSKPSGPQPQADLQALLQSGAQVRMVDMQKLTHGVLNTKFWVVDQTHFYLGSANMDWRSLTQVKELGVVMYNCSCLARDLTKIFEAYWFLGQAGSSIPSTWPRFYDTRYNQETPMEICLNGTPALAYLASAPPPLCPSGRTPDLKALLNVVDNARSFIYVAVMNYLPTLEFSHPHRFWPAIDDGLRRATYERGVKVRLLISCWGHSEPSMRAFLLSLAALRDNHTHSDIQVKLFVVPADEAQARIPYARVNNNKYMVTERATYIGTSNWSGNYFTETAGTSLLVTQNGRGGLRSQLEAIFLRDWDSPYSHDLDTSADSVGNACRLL
The experiment in a line: fluorescence anisotropy. (Fluorescence polarisation rises when a labelled molecule tumbles more slowly, as on binding a larger partner.)

As for UCUCUCUCUCUCUCUCUCUC (ssRNA, phosphorothioate backbone) [(rU*rC*)10 ssRNA], the binding result with PLD3 (active) is “binds”.

B1: PLD3(V232M), soluble catalytic domain (enzyme, human)
chain: WEYGDLHLFGPNQRPAPCYDPCEAVLVESIPEGLDFPNASTGNPSTSQAWLGLLAGAHSSLDIASFYWTLTNNDTHTQEPSAQQGEEVLRQLQTLAPKGVNVRIAVSKPSGPQPQADLQALLQSGAQVRMVDMQKLTHGVLHTKFWVVDQTHFYLGSANMDWRSLTQVKELGMVMYNCSCLARDLTKIFEAYWFLGQAGSSIPSTWPRFYDTRYNQETPMEICLNGTPALAYLASAPPPLCPSGRTPDLKALLNVVDNARSFIYVAVMNYLPTLEFSHPHRFWPAIDDGLRRATYERGVKVRLLISCWGHSEPSMRAFLLSLAALRDNHTHSDIQVKLFVVPADEAQARIPYARVNHNKYMVTERATYIGTSNWSGNYFTETAGTSLLVTQNGRGGLRSQLEAIFLRDWDSPYSHDLDTSADSVGNACRLL
B1: the binding result in the data set “SEC” is listed as “binds”. Regarding AGCUUAACCUG (ssRNA) [RNA9.2s 11 nt], the binding result with PLD3(H201N,H416N) is listed as “no binding”.

(Values after paper PMC11470960 (Immunity, 2024).)
